Measured values: patent US20180009892A1 (EUREKA THERAPEUTICS, published 2018)

Key:
[1] = molecular target: T1, ROR1 extracellular domain Fc-fusion, dimer (human, UniProt Q01973 30-406); test: SPR, immobilised ROR1 dimer, antibody injected, 1:1 model
T1 construct: also called ROR1 dimer; hROR1 dimeric ECD-Fc fusion protein; not shown: Fc part
Description: (§1) The binding affinities of ROR1 extracellular domain dimer and monomer for anti-ROR1 antibodies were determined by surface plasmon resonance (SPR). ROR1 extracellular domain Fc-fusion, “dimer,” and ROR1 extracellular domain Fc fusion:Fc heterodimer, “monomer,” are the dimer and monomeric forms of ROR1 used for affinity analysis, respectively. Briefly, ROR1 dimer and monomer were directly immobilized to a CM4 chip using an amine coupling kit and 100 mM ethylenediamine in 100 mM Sodium Borate buffer, pH 8.0 as the blocking reagent. Approximately 100-150 RU of ROR1 dimer and monomer were immobilized on separate flow cells and an un-derivatized flow cell was used as a reference control. […] Dissociation was followed for 180 seconds. The association constant, dissociation constant, and affinity of each anti-ROR1 antibody was calculated using the Biacore T200 Evaluation Software 1:1 binding model.
(§2) Sensorgrams were normalized to 100 RU using the “binding stability point” at the end of the association phase but before the dissociation phase.

[2] = molecular target: T2, ROR1 extracellular domain Fc fusion:Fc heterodimer, monomer (human); test: SPR, immobilised ROR1 monomer, antibody injected, 1:1 model
T2 construct: Heterodimer of one ROR1 ECD-Fc chain and one Fc chain; also called ROR1 monomer; hROR1 monomeric ECD-Fc fusion protein; not shown: Fc part; Fc alone
T2 sequence (Q01973 30-406, one chain of several): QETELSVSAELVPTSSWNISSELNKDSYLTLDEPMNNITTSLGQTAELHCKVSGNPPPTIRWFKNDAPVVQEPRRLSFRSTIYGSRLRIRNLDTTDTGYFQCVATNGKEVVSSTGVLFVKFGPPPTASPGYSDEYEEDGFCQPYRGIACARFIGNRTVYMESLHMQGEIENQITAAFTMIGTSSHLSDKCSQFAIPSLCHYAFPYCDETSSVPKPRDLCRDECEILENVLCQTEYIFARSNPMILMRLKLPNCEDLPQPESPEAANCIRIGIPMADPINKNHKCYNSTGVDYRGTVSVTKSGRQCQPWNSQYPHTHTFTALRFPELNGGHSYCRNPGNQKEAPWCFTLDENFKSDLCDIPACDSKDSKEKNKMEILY
Description: as §1, §2

[3] = molecular target: T1, ROR1 extracellular domain Fc-fusion, …; test: SPR, immobilised ROR1 dimer, antibody injected, 1:1 model; apparent affinity
Description: as §1, §2

[4] = molecular target: T3, human ROR2-ECD (human, UniProt Q01974 34-403); test: protein ELISA, phage
T3 construct: extracellular domain; also called hROR2
T3 sequence (Q01974 34-403): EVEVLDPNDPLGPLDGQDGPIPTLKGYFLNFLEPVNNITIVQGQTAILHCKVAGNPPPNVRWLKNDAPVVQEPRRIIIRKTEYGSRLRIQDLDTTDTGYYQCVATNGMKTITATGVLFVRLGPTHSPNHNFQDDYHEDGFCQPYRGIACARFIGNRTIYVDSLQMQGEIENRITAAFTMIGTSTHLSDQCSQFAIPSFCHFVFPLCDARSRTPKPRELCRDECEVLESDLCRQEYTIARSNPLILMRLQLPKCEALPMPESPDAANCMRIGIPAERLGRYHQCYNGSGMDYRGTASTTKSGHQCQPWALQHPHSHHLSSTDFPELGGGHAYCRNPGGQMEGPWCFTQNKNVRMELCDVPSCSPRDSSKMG

[5] = molecular target: T4, human ROR1 extracellular domain (ECD) protein (human, UniProt Q01973 30-406); test: competitive phage ELISA: soluble ROR1 against ROR1-coated plate
T4 construct: also called hROR1-ECD; human ROR1-ECD
T4 sequence (Q01973 30-406 limits assumed): as the sequence (Q01973 30-406, one chain of several) above
Description: Purified phage antibodies were first diluted serially in PBST buffer, and tested for binding to a ROR1-coated plate. The dilution that gave 50-80% saturating signal was used in the solution binding assay in which phage were first incubated with increasing concentration of ROR1 for one to two hours, and then transferred to a ROR1-coated plate for 10-15 minutes to capture the unbound phage.

T1 sequence (Q01973 30-406): as the sequence (Q01973 30-406, one chain of several) above

B1: Antibody 601-13 (antibody, V domains shown)
VH: EVQLVQSGAEVKKPGSSVKVSCKASGGTFSTFAINWVRQAPGQGLEWMGGVIPVSGTEDYSQKFQGRLSLTADESTGTAYMELSSLRSDDTAVYYCARDRSGRDWDYFDYWGQGTLVTVSS
VL: DIVMTQSPSSLSASVGDRVTITCQASQDISNYLNWYQQKPGKAPKLLIYDASNLETGVPSRFSGSGSGTDFIFTISSLQPEDIATYYCQQFDNLPYTFGQGTKVEIKR
B1 was tested, and the koff [1] was 0.00087 s⁻¹, the kon [1] was 1.6e+06 M⁻¹ s⁻¹ and the Kd [2] was 0.8 nM. It also gave a koff [2] of 0.0014 s⁻¹, a kon [2] of 1.8e+06 M⁻¹ s⁻¹ and a Kd [3] of 0.5 nM.

B2: P601-50 (scFv, V domains shown)
VH: QVQLQQSGAEVKKPGASVKVSCKASGYTFSRYYIHWVRRAPGQGLEWMGLINPGGGSTNYAQKFQGRVTMTRDTSTNTVYLELSSLRSDDTAVYYCARDYGTIDARRFDFWGQGTLVTVSS
VL: QSALTQPPSASGTPGQRVTISCPGSSSNIGSNYVYWYQQLPGTAPKLLIYRNNQRPSGVPDRFSGSKSGTSATLGITGLQTGDEADYYCGTWDSSLSAYVFGTGTKVTVL
For B2, the binding result [4] was “no binding” and the IC50 [5] was 24.1 nM.

B3: P601-70 (scFv, V domains shown)
VH: EVQLVQSGAELKKPGSSVRVSCKTSGGSFKTHGISWVRQAPGQGLEWMGWINPNSGGALYVDNFQGRATMTRDTSINTAYMELRSLSSDDTAVYYCARGMADLIDVFDIWGQGTMVTVSS
VL: TQPALTQPASVSGSPGQSITISCTGTSSDFGDYDYVSWYQQHPGKAPKLMIYDVSDRPSGVSNRFSGSKSGNTASLTISGLQAEDEADYFCSSFTTSSTLVFGGGTKLTVL
For B3, the binding result [4] was “no binding” and the IC50 [5] was 74 nM.

B4: P601-4 (scFv, V domains shown)
VH: EVQLVQSGPGLVKPSGTLSLTCAVSGGSISSSNWWSWVRQPPGKGLEWIGEIYHSGSTNYNPSLKSRVTISVDKSKNQFSLKLGSVTAADTATYYCARDLWLGEWDLWGQGTLVTVSS
VL: QSVLTQPPSASGAPGQRVTISCSGGISNVGTNGVNWYQHLPGTAPKLLVDAMNQRPSGVPDRFSGSRSGTSGSLAITGLRSEDEADYYCATWDDSLSGVLFGGGTKLTVLG
With B4 the binding result [4] was “no binding” and the IC50 [5] was 0.93 nM.

B5: P601-108 (scFv, V domains shown)
VH: QLQLQESGPGLVKPSETLSLTCTVSGGSISSNSYYWGWIRQPPGKGLEWIGSIYYSGSTYYNPSLKSRVTISVDTSKNQFSLKLGSVTAADTAVYYCARHDGTDAFDIWGQGTTVTVSS
VL: QSVVTQPPSVSAAPGQKVTISCSGSSSNIGKNYVSWYQQFPGTAPKLLIYDNNERPSGIPARFSGSKSGTSATLGITGLQTGDEADYYCATFDTSLWAAVFGGGTKLTVL
For B5, the binding result [4] was “no binding” and the IC50 [5] was 0.76 nM.

B6: P601-69 (scFv, V domains shown)
VH: QVQLVQSGAEVKKPGESLKISCKGSGYSFTSYWIGWVRQMPGKGLEWMGIIYPGDSDTRYSPSFQGQVTISADKSISTAYLQWSSLKASDTAMYYCARLSSSSYDAFDIWGQGTMVTVSS
VL: QSALTQPASVSGSPGQSITISCTGTSSDVGGYNYVSWYQQHPGKAPKLMIYDVSNRPSGVSNRFSGSKSGNTASLTISGLQAEDEADYYCSSYTSSSIPWVFGGGTKLTVL
B6 was tested, and the binding result [4] was “no binding” and the IC50 [5] was 9.81 nM.

B7: P601-9 (scFv, V domains shown)
VH: QLQLQESGPGVVKPSGTLSLTCTVSGGSISRSDGYWGWVRQPPGKGLEWIGSIYDTGTTYYSPSLKSRLIISVDTSKNQFSLTLNSVTAADTAVYYCASMGGLRSSSSDAFHTWGPGTMVTVSS
VL: QSVLTQPPSVSVAPGETARITCGGTNIGSESVHWYQQRPGQAPVLVVYDDTDRPSGIPERFSGSNSGNTATLTISRVEAGDGADYYCQVWDSVSDRYVFGTGTKVTVL
With B7 the binding result [4] was “no binding” and the IC50 [5] was 14.6 nM.

B8: P601-128 (scFv, V domains shown)
VH: EVQLVQSGAEVKKPGESLKISCKGSGYSFSRYWIGWVRQMPGKGLEWMGIIYPRDSDTRYSPSFQGQVTISADKSISTAYLQWSSLKASDTAMYYCATPVVTAGAFDIWGQGTMVTVSS
VL: DIQMTQSPSSVSASVGDRVTITCRASQGISSWLAWYQQKPGKAPKLLIYAASSLQSGVPSRFSGSGSGTDFTLTISSLQPEDFATYYCQQANSFPLTFGGGTKVEIK
B8 was tested, and the binding result [4] was “no binding” and the IC50 [5] was 263 nM.

B9: Antibody 601-100 (antibody, V domains shown)
VH: EVQLVQSGGGVVQPGGPLRLSCAASGFTFSSYSMNWVRQAPGKGLEWVSSISSSSSYIYYADSVKGRFTISRDNAKNSLYLQMNSLRAEDTAVYYCARGLGGWTHDAFDIWGQGTMVTVSS
VL: QSALTQPASVSGSPGQSITISCTGTSRDVGGYDYVSWYQQYPGNAPKLMIYDVSRRPSGVSHRFSASKSGNTASLTISGLQTEDEADYYCSSYTSSSTRVFGGGTKVTVL
With B9 the koff [1] was 0.0017 s⁻¹, the kon [1] was 440000 M⁻¹ s⁻¹ and the Kd [2] was 8.2 nM. For the same binder, the koff [2] was 0.0028 s⁻¹, the kon [2] was 350000 M⁻¹ s⁻¹ and the Kd [3] was 3.9 nM.

B10: P601-102 (scFv, V domains shown)
VH: QMQLVQSGGDLVQPGGSLRLSCAASGFTFSSYSMNWVRQAPGKGLEWVSSISSSSSYIYYADSVKGRFTISRDNAKNSLYLQMNSLRAEDTAVYYCARGLGGWTHDAFDIWGQGTTVTVSS
VL: QSALTQPASVSGSPGQSITISCTGTSSDVGGYNYVSWYQQHPGKAPKLMIYDVSKRPSGVSNRFSGSKSGNTASLTISGLQAEDEADYYCSSYTSSSTSVVFGGGTKLTVL
B10 was tested, and the binding result [4] was “no binding” and the IC50 [5] was 10.2 nM.

B11: Antibody 601-103 (antibody, V domains shown)
VH: EVQLVQSGGDLVQPGGSLRLSCAASGFTFSSYSMNWVRQAPGKGLEWVSSISSSSSYIYYADSVKGRFTISRDNAKNSLYLQMNSLRAEDTAVYYCARGLGGWTHDAFDIWGQGTTVTVSS
VL: QSVLTQPASVSGSPGQSITISCTGTTSDVGGYNYVSWYQQHPGKAPKLMIYDVSKRPSGVSNRFSGSKSGNTASLTISGLQAEDEADYYCSSYTSSSTDVFGTGTKLTVL
Binder B11 has a koff [1] of 0.0035 s⁻¹, a kon [1] of 170000 M⁻¹ s⁻¹ and a Kd [2] of 40.2 nM. It also gave a koff [2] of 0.005 s⁻¹, a kon [2] of 120000 M⁻¹ s⁻¹ and a Kd [3] of 20.7 nM.

B12: P601-100 (scFv, V domains shown)
VH: EVQLVQSGGGVVQPGGPLRLSCAASGFTFSSYSMNWVRQAPGKGLEWVSSISSSSSYIYYADSVKGRFTISRDNAKNSLYLQMNSLRAEDTAVYYCARGLGGWTHDAFDIWGQGTMVTVSS
VL: QSALTQPASVSGSPGQSITISCTGTSRDVGGYDYVSWYQQYPGNAPKLMIYDVSRRPSGVSHRFSASKSGNTASLTISGLQTEDEADYYCSSYTSSSTRVFGGGTKVTVL
B12 was tested, and the binding result [4] was “no binding” and the IC50 [5] was 5.8 nM.

B13: P601-119 (scFv, V domains shown)
VH: QVQLVQSGGGLVKPGGSLRLSCAASGFTFGTYSMNWVRQAPGKGLEWVSSISSSSSYIYYADSVKGRFTISRDNAKNSLYLQMNSLRAEDTAVYYCARGLGGWTHDAFDIWGQGTTVTVSS
VL: QSALTQPASVSASPGQSITISCTGTSSDVGGYNYVTWYQQHPGKAPKLMIYDVSKRPSGVLDRFSGSKSGNTASLTISGLQAEDEADYFCSSYTSSSTLVFGGGTKLTVLG
With B13 the binding result [4] was “no binding” and the IC50 [5] was 17.7 nM.

B14: Antibody 601-119 (antibody, V domains shown)
VH: QVQLVQSGGGLVKPGGSLRLSCAASGFTFGTYSMNWVRQAPGKGLEWVSSISSSSSYIYYADSVKGRFTISRDNAKNSLYLQMNSLRAEDTAVYYCARGLGGWTHDAFDIWGQGTTVTVSS
VL: QSALTQPASVSASPGQSITISCTGTSSDVGGYNYVTWYQQHPGKAPKLMIYDVSKRPSGVLDRFSGSKSGNTASLTISGLQAEDEADYFCSSYTSSSTLVFGGGTKLTVLG
For B14, the koff [1] was 0.079 s⁻¹, the kon [1] was 440000 M⁻¹ s⁻¹ and the Kd [2] was 407 nM. For the same binder, the koff [2] was 0.095 s⁻¹, the kon [2] was 230000 M⁻¹ s⁻¹ and the Kd [3] was 178 nM.

B15: Antibody 601-28 (antibody, V domains shown)
VH: EVQLVQSGGDLVQPGGSLRLSCAASGFTFSSYSMNWVRQAPGKGLEWVSSISSSSSYIYYADSVKGRFTISRDNAKNSLYLQMNSLRAEDTAVYYCARGLGGWTHDAFDIWGQGTTVTVSS
VL: QSALTQPASVSGSPGQSITISCTGTSSDVGGYNYVSWYQQHPGKAPKLMIFDVSNRPSGVSNRFSGSKSGNTASLTISGLQAEDEADYYCSSYTSSSTLFGGGTKLTVL
Binder B15 has a koff [1] of 0.0097 s⁻¹, a kon [1] of 340000 M⁻¹ s⁻¹ and a Kd [2] of 36.4 nM. For the same binder, the koff [2] was 0.012 s⁻¹, the kon [2] was 320000 M⁻¹ s⁻¹ and the Kd [3] was 28.5 nM.

B16: Antibody 601-112 (antibody, V domains shown)
VH: EVQLVQSGGDLVQPGGSLRLSCAASGFTFSSYSMNWVRQAPGKGLEWVSSISSSSSYIYYADSVKGRFTISRDNAKNSLYLQMNSLRAEDTAVYYCARGLGGWTHDAFDIWGQGTTVTVSS
VL: QSALTQPASVSGSPGQSITISCTGTSSDVGGYNYVSWYQQHPGKAPKLMIYDVSKRPSGVSNRFSGSKSGNTASLTISGLQAEDEADYYCSSYTGRSTVFGGGTKLTVL
B16 showed a koff [1] of 0.00032 s⁻¹, a kon [1] of 340000 M⁻¹ s⁻¹ and a Kd [2] of 4.6 nM. The koff [2] was 0.0012 s⁻¹, the kon [2] was 270000 M⁻¹ s⁻¹ and the Kd [3] was 1 nM.
